Columns and labels:
hFAST-1 (Homo sapiens) = target: T1, hFAST-1 (Homo sapiens) (UniProt O75593); assay: cell_activity; details: MvLu1 cells; TGF-beta dependent luciferase activation
T1 sequence: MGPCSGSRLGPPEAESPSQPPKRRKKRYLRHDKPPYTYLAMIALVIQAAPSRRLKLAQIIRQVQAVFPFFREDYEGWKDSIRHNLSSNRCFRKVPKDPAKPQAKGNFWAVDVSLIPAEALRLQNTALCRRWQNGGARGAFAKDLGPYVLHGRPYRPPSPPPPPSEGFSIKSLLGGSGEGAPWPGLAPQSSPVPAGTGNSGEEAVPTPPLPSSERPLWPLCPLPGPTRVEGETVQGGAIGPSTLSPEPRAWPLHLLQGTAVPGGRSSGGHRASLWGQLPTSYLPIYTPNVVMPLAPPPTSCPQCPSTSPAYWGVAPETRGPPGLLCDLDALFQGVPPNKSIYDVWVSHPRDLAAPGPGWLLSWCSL

[1] = target: T2, hFAST-1 full length (FAST-FL) (Homo sapiens, UniProt O75593 SEQ:1-365); assay: EMSA; about 0.4 uM protein, 0.5 ng DNA; details: tags: GST N-terminal fusion (pGEX2TK); label: 32P
T2 sequence: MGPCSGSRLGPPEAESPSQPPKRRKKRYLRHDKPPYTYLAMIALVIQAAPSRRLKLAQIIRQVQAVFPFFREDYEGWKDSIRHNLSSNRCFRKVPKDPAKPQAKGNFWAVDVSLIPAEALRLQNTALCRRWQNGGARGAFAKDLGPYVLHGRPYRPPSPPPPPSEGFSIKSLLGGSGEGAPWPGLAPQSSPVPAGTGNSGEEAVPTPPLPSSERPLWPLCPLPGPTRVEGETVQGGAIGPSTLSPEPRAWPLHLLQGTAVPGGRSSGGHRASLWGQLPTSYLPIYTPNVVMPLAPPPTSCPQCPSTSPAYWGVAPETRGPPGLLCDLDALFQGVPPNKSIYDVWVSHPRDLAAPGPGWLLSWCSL
Protocol: (§1) Derivation of clones and EMSA were performed as described in Example 7. Mock selected clones were used for comparison (“C” lanes). The positions of free probe and hFAST-1 bound probe (“shift”) are indicated. FIG. 4B provides a sequence summary of clones that bound to hFAST-1. The sequences of the relevant segment of 17 hFAST-1-binding clones were determined and the fractions of clones containing the nucleotides at the indicated positions relative to the consensus are shown. […] Wild-type (FBE) or mutant (FBE*) oligonucleotides were incubated with 0.5-2.0 μg of GST fusion proteins containing full-length hFAST-1 (FAST-FL) or only its forkhead domain (FAST-FH). GST fusion proteins containing the MH1 or MH2 domains of Smad2 (S-N and S-C, respectively; Zawel et al., 1998) were used as controls. The FBE* oligonucleotide contained the sequence TCTGTATC in place of the consensus TGTGTATT but was otherwise identical to FBE. […] EMSA was performed with (+) or without (−) 1 μg of GST fusion protein containing full length FAST-1 (“FAST-FL”). The sequence of the 50 bp ARE oligonucleotide differed by only one bp from ARE*.
(§2) Sixty bp probes corresponding to single clones were generated for EMSA by colony PCR using the following ³²P-labeled primers: 5′-[…]-3′ (SEQ ID NO:14) and 5′-[…]-3′ (SEQ ID NO:15). […]

Smad2 MH2 domain (S-C) = Smad2 MH2 domain (S-C) (Homo sapiens, UniProt Q15796 SEQ:193-477); assay: EMSA; specificity control; details: tags: GST fusion; label: 32P
Protocol: as §1, §2

Smad2 MH1 domain (S-N) = Smad2 MH1 domain (S-N) (Homo sapiens, UniProt Q15796 Q15796:1-182); assay: EMSA; specificity control; details: tags: GST fusion; label: 32P
Protocol: as §1, §2

[2] = target: T2, hFAST-1 full length (FAST-FL); assay: EMSA; 1 ug GST fusion; details: tags: GST N-terminal fusion (pGEX2TK); label: 32P
Protocol: as §1, §2

[3] = target: T2, hFAST-1 full length (FAST-FL); assay: EMSA; single base substitution in FBE; details: tags: GST N-terminal fusion (pGEX2TK); label: 32P
Protocol: as §1, §2

[4] = target: T2, hFAST-1 full length (FAST-FL); assay: EMSA; two consensus positions altered; details: tags: GST N-terminal fusion (pGEX2TK); label: 32P
Protocol: as §1, §2

Smad2 MH2 domain (S-C), sequence (Q15796 183-467): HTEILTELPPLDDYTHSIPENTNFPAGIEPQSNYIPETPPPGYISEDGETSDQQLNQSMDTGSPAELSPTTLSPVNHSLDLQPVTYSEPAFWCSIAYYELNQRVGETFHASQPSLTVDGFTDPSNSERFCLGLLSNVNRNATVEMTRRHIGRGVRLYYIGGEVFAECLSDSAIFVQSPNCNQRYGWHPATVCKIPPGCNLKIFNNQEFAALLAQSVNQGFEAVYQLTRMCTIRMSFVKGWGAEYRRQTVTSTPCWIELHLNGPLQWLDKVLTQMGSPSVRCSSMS
Smad2 MH1 domain (S-N), sequence (Q15796 1-182, one chain of several): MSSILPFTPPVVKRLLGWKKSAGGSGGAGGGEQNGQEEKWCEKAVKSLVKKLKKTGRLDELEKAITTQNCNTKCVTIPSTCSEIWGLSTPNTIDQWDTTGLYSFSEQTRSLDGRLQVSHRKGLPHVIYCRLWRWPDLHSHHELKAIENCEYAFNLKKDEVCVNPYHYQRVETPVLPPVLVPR

**Q.** “AR3-lux reporter (three copies of Mix.2 ARE)” was tested. Which activity (hFAST-1 (Homo sapiens)) did it give?
**A.** The activity was over 30 fold.

B1: FBE (dsDNA)
DNA 1: CGGATTGTGTATTGGCTGTAC
DNA 2: GTACAGCCAATACACAATCCG
**Q.** Does B1 bind [1]?
**A.** Result: binds

**Q.** Does B1 bind (Smad2 MH2 domain (S-C))?
**A.** Result: no binding

**Q.** Does B1 bind (Smad2 MH1 domain (S-N))?
**A.** Result: no binding

B2: ARE (Mix.2) (dsDNA)
DNA 1: TATCTGCTGCCCTAAAATGTGTATTCCATGGAAATGTCTGCCCTTCTCTCCGTAC
DNA 2: GTACGGAGAGAAGGGCAGACATTTCCATGGAATACACATTTTAGGGCAGCAGATA
**Q.** Does B2 bind [2]?
**A.** Result: binds

B3: ARE mutant (dsDNA)
DNA 1: TATCTGCTGCCCTAAAATCTGTATTCCATGGAAATGTCTGCCCTTCTCTCCGTAC
DNA 2: GTACGGAGAGAAGGGCAGACATTTCCATGGAATACAGATTTTAGGGCAGCAGATA
**Q.** Does B3 bind [3]?
**A.** Result: no binding

B4: FBE* (dsDNA)
DNA 1: CGGATTCTGTATCGGCTGTAC
DNA 2: GTACAGCCGATACAGAATCCG
**Q.** Does B4 bind [4]?
**A.** Result: no binding

— patent US20060281078, “Human fast-1 gene” (published 2006)
